Assay results published in the DeepSol protein solubility set.

Assay: soluble on expression in E. coli; label from the status in PepcDB or PDB records

| Sequence | soluble on expression in E. coli |
| --- | --- |
| MDVNVNIDTNAEKQAISPYIYGTNQDFSNAKVTARRIGGNRSTGYNWENNDSNAGTDWKNESDNYWLTLYDVPKEKYNEPASVYTAFHDKSLAMGVPYSLVTLQAGGYVAADQSGPLANTDVAPSSKWKKVEFNKNGPLSLTPDTTDGSVYMDEFVNYLVNKYGSASGSKGIKGYSLDNEPSLWPSTHPLIHPDKTKCSEVLDKDTQLAQVVKKIDPAAETFGPALFGFSAFNDFNSSPDWSSVKGNYQWFIDYYLDNMKKNSDAAGKRLLDALDLHWYPEAKGGGQRVTTSDTSNVDCNKARMQAPRSLWDSTYTEDSWIGQWCKWGLPLIPKVKSSIDKYYPGTKLSFSEYNYGGEDHISGGIAQADALGVFGKYGVYFATYWECNSDKNNYVQSAFNLYNNYDGNNSKYGDTDVKCDTSDINNSSTYASVTSNDGNKMDIIVMNKNYTDSINFNFNVSSNKNYTSGQVWGFDSNSSNITKRDDVSSISGNKFTYKIPALTAVHIVLLEHHHHHH | soluble |
| MDVVFETVNCLESNRKIIIVKLPDGSSEKFFFNVTKRAFEKIVCVDGKPVQMDSDLTPHHSVWCPHIHKNIIFAYNHLLRMNLQYLFDSETLSFHETKCDQCHLDPKKSTNVKQILLVAASPKIRRPIVLTMSQEGRVLKMCYDEIEKNYVDMSPTEIKALTQLKDVTAAMEDLTLDSKVMESDLIPLVKEKSVFLPHDSILIAKNKKTNKIGQYVFDRYHHQFLEVVMSDIEIKQEMPNIAKLINVTMSTKTEQAISIRCTPGIGELKKFHYNRETASFDPMEEKAIVESDEEIQSFIEEIEKTQDIVCKKIKAILWFYHNVKPFLAKKLENPVKKNNDYKRYVFKPVEPEEKVDDEMDSVSEPESDSLSMSSSSRSSSRSSLSSDDSFEMVVDIDFVE | not soluble |
| MDWKKIYEDRTCTADEAVKSIKSGDRVLFAHCVAEPPVLVEAMVANAAAYKNVTVSHMVTLGKGEYSKPEYKENFTFEGWFTSPSTRGSIAEGHGQFVPVFFHEVPSLIRKDIFHVDVFMVMVSPPDHNGFCCVGVSSDYTMQAIKSAKIVLAEVNDQVPVVYGDTFVHVSEIDKFVETSHPLPEIGLPKIGEVEAAIGKHCASLIEDGSTLQLGIGAIPDAVLSQLKDKKHLGIHSEMISDGVVDLYEAGVIDCSQKSIDKGKMAITFLMGTKRLYDFAANNPKVELKPVDYINHPSVVAQCSKMVCINACLQVDFMGQIVSDSIGTKQFSGVGGQVDFVRGASMSIDGKGKAIIAMPSVAKKKDGSMISKIVPFIDHGAAVTTSRNDADYVVTEYGIAEMKGKSLQDRARALINIAHPDFKDELKAEFEKRFNAAFSAWSHPQFEK | soluble |
| MDWVRLLSRLVQAESLPGEEGEAAGLLLEALKGMGLEATLDEAGNIEALLGEKGPEVVLTGHMDVVPVGDPARWPYPQGAVAEGSLWGRGAVDMKGSLVAMLLALETLARGALKGRVRFLAVVQEEVGGLGSRFAAERLSPLAFVLGEPSSGRLMRGHRGRRKVWADFEGRETHAALAGPENPLFDLGAYLLALQDLPLPPGVKLTPTRVDTHPGARNQTPGVVRLYLDVRYEPEADLDGLLAALRTLGPASVYLPEEERASGEVRMTLPALWPPYRLPEDHPLLQAALQALGQEEAGLWPFTTDAPYLGAKAPVLGLGPGDPALAHTPMEHVPLRAVEEAAQAYVRLVEALWNAD | soluble |
| MDYNKTAKDILKLLGGEKNVMSAAHCATRLRLVLKNEKEARTKEIEKLDGVKGVFSSSGQYQIIIGQGSVNKVYKAFVEGTGISESSLSDTKKAAMKNM | not soluble |
| MEAEELTVGRVHHGHNIRRFRIEKNMNQEVLSQLVHLSQSAVSKYEQMRVIDDEMLHRFSRALGVPFEYLKSLEEDAQTVVFENNTVNNNDQASANIGGYVEENNRVNNYNPIEKITELYERLLKEKDEKYAALERRLQNIEQSLQK | not soluble |
| MEAGSIVLGLVGKTNVGKSTFFAAATEVPVKIENRPFVTIEPNVGVGYARKRCAHVELGLPRCDPVNSLCIEGWRFIPVKLLDVAGLVPGAHRGRGLGNRFLDDVRKADALLLVVDASGSTDPEGVPVKPGSYDPVEEVGLMLGEIYEWMLQNLARDWERFARRVDTAGNVDLVTALSQRLSGFEIPRGVVAGVLEETGLGEKRLSSWSREDLRLFVKLVLERGKPAVILANKVDVPGAEENVERLGSSYPGIPVVPASALAELMLRRLAREGRVRYIPGDPDFTVKDPGGLGGKALKALELVRERVMKRWGGTGVVQAINTAVFDVLDMIAVYPVEDPNRYTDREGRILPDVILVKRGSTPRDLAYRIHTDLGKTFLYAVNAKTKQRVGEGYRLQDGDVVKIVAAAGKR | soluble |
| MEALGKTILASDDINSIKKNLAKHIVHLNEENEKYRNEIKLLKKNKDINNQILFTLNKTEISSDMIDSLFMQTKNVIIQVTNKKY | not soluble |
| MECYVFTPKGRIIKLPRGATIVDFAYAVHTDIGNSCVSARVNRILAPLHSVLENGQTIEIITAPWARPNPLEHHHHHH | not soluble |
| MEDDHSKEMDRLRSQAAKVQSEKETFDRKRRETLEKHKKELDELEKKNKKEEDDLREQNMNLWNKNLDQQIALGNELNNKYTEISNQNSRLQIKIGQEEDIRVFKIKLLDVSKVWTDVKVNYQDYLRNTLDEHSNSNKSDVLKEIDTLIYNKEKLNEVLITAKKLLGKCQKFTTSDSFKVINDSLTELMRFKFEDDILIELKTIIKKNGSAEQSFLTKMDETIDKYNEMVNELPGLQLKSVEPIHQAAIQ | soluble |
| MEDELPIIKGKKVILFAPTFRGSGHGTAHYPFFKIDFERLARYCEKNNAVVLFKMHPFVKNRLNIADKHKQYFVDVSDFREVNDILFITDLLISDYSSLIYEYAVFKKPMIFYAFDLEDYITTRDFYEPYESFVPGKIVQSFDALMDALDNEDYEGEKVIPFLDKHFKYQDGRSSERLVRNLFGS | soluble |
| MEDERIKLLFKEKALEILMTIYYESLGGNDVYIQYIASKVNSPHSYVWLIIKKFEEAKMVECELEGRTKIIRLTDKGQKIAQQIKSIIDIMENDT | soluble |
| MEDKEAVRRGVTLFALPAHAGEGAKAIWQTCDVIWSALGDSSEDVNWYTKRATLSAVYSATVLYWLGDETPGHEATWEFLDRRIDNVMQFEKFKADVQKNPLLKPLLAGPNWLFAQMRAPLEHHHHHH | soluble |
| MEDLLPTLPSLDHRDALPNALASPVLPAGQSDAQLVRTWLDTKYAAGLGIRASTRAQYALEAHRLLWYAHALGRPLASWQVADANGYLAFLADPPAHAVGDGRVRQDSPAWRPLRGPLSEASRRQTATIVGGLFEWLVGVEALRVNPFQAVPRARSARGPGSQRRFLEAEQLAAVFDAVEARPAPTLWAQLHKARDRLLLALLFHTGLRASEVTALTWPDFERQRGRHGDFWTVRIREAKGGSDQLVPCDNVMAELARFRQLVGLSPEPRATDTMAVVPAMAGGRQRLAPLTDTLALQRRLSRPVRTRQGLYTIVRQVFEAAAVRLEASGYAEGAANLRAASTHWLRHSHATHLLRAGVPVTDVQRTLRHRDINTTRRYTHEALEDVARSIGGKLPAVLEHHHHHH | not soluble |
| MEDNIRIGKIILNLSNKISRQLNKEASAFGLTGVQAKLIGFIHHRSSTQDIFQKDIEEEFDIRRSSVTSALQLMEKKGYIKRVSVSDDARLKKIVLTEKGLELDKKVYDAIIKLENSLINEFDNDELHVLIDSLDRISKKIVDLEHHHHHH | soluble |
| MEEAPFYRDTWVEVDLDAIYNNVTHIKEFIPSDVEIFAVVKGNAYGHDYVPVAKIALEAGATRLAVAFLDEALVLRRAGITAPILVLGPSPPRDINVAAENDVALTVFQKEWVDEAIKLWDGSSTMKYHINFDSGMGRIGIRERKELKGFLKSLEGAPFLELEGVYTHFATADEVETSYFDKQYNTFLEQLSWLKEFGVDPKFVHTANSAATLRFQGITFNAVRIGIAMYGLSPSVEIRPFLPFKLEPALSLHTKVAHIKQVIKGDGISYNVTYRTKTEEWIATVAIGYADGWLRRLQGFEVLVNGKRVPIVGRVTMDQFMIHLPCEVPLGTKVTLIGRQGDEYISATEVAEYSGTINYEIITTISFRVPRIFIRNGKVVEVINYLNDILEENLYFQ | soluble |
| MEEEGSPDIIIVGAGISGLSTAVGLHRLGIRSMVLESSETLRATGFAFTTWFNAWKAMEALGVSQHIRSLHDRLEGWVVGTISAGTPPTEMLFPESEEYESRCVQRKLLLEALAGELPEETIRFSSKVVHIELSGCYKKVHLSDGTILKTKVLVGCDGVYSVVGKWLGFKNPATTARLAIRGLTHFPEGHGFGKRFFQFYGDGVRSGFIPCDHNTVYWFLTHTSTDIDEETNSEILKEFVLNKIKDLPENIKNVVETTDLDSMVMSQLKYRPPWELLWSNITKDNVCVAGDALHPMTPDIGQGGCSAMEDGVILARCLGEAIKAKSLKGETEENEEEGYKRIEEGLKKYAGERKWRSIDLITTAYTVGFIQQSRGKWMNMFRDRFLSSYLSRMLLKKSHFDCGSLVP | soluble |
| MEEEVSRKTVAISVQAAKLTGRVLFMACQKFLAGVQKHNRDALTPHGRQTVKQLMGHTGQSNSIQLKGDARLFDRVARKFNVDYAFHKVGPKDYLLFFKAGQADAITAAFSEYTKRVMARQNDKPSIRRGLRQAMGRVKPRQKEREKTREAVQER | not soluble |
| MEEMRDNDVPVQQALFDMGPDEEVGYRVPIACQVAGITYRQLDYWARTKLVEPTIRTARGSGSQRLYSFKDILVLKIVKRLLDTGISLQNIRLAVDKLRNRGVDDLAEITLVSDGTTVYECRSNEEVIDLLGGGQGVFGIAVPGIVRELTGTISSFPSEKISDFLSNSPAAGGIDELAARRLRKTS | not soluble |
| MEEWIQYARDMAKAEKELEIELWVIISFYRTTEQGGKVLLFRYDLPRKVADKYDWVVRWRRARLTCQYPKGNVTHTYCLYDRHSGEDYSFGSCLSSLAAAKAQVTRMERRIREYTTWQKQNNLFFDEQTDEMLQKAVTKLKIKKENVQEAERRLQRKAEKHQREMRK | not soluble |
| MEEWVREQYGMRVERLERSGRHAAFWHRQERFLLVPADGQSEAEMEERQQMSRYLRAKGVDGVGELVKTTSGTYIASYNGQPLALVRAPLPASRFRSLGRELAVMHECGRTCPWPIVACRRIGQWRELWAKRIDQMEAFWSSKLASGPSSLFDRLFIESFPYYLGLAENAVQYVADTEIDEEPGRIDYAAFCHERLPEAKWVGGGEAKLPTDWVYDHCARDLAEWVRHLYEKSGLGCQRAVRQFFQEYEHAAPLSPFAWRLVYARLLFPLSYFECVEAYYIAVDESERTRREGELRRLLDRSHEYERFLASFAKIAGISNRIRLPAVEWLPPA | not soluble |
| MEFIGDTRIVIINPLGAKKICRLTFEQIKVIYQEVKTHFENYRIIFTGLPQDLLTIPILEIETLPFDEFIYTVALTKYSDFVISVDTALVHIAAAYHKPTLAFYPNSRTPEYPSHLIWSPNHHKSIQIVSPTYTVKDIDTETLTNSVKRLSCIDKKLEHHHHHH | soluble |
| MEFIPPKRMLELIKHYSTTFKNWYSVMLGIYLHRERIKCTLRNGQTLYLTPNEAVLLAGLRIIELDCNTVKFSFNGREITLRGWRLSDPGDSFSDYWRINVKGKRVLDIGAGVGDSSIYFSTMGAKEVVAVEIDKKKIELMRENLRTNGINNVIVVDKGVGTVDNENFISWERLIKDYGPFDDAKIDCDGCERLISPFIKEIPELLIEWDSDYKDVVKNLSKNGYKIRVEHTLKNLGFIYAKRE | soluble |
| MEFNLHAVSSEEKERDFDVVIVGAGAAGFSAAVYAARSGFSVAILDKAVAGGLTAEAPLVENYLGFKSIVGSELAKLFADHAANYAKIREGVEVRSIKKTQGGFDIETNDDTYHAKYVIITTGTTHKHLGVKGESEYFGKGTSYCSTCDGYLFKGKRVVTIGGGNSGAIAAISMSEYVKNVTIIEYMPKYMCENAYVQEIKKRNIPYIMNAQVTEIVGDGKKVTGVKYKDRTTGEEKLIETDGVFIYVGLIPQTSFLKDSGVKLDERGYIVVDSRQRTSVPGVYAAGDVTSGNFAQIASAVGDGCKAALSLYSDSISKK | soluble |
